# T1: PDH component X (PDHX), endogenous (human, UniProt O00330 54-501)
# T1 construct: Endogenous protein in mitochondrial lysates of MRC5 cells
# T1 sequence (looked up): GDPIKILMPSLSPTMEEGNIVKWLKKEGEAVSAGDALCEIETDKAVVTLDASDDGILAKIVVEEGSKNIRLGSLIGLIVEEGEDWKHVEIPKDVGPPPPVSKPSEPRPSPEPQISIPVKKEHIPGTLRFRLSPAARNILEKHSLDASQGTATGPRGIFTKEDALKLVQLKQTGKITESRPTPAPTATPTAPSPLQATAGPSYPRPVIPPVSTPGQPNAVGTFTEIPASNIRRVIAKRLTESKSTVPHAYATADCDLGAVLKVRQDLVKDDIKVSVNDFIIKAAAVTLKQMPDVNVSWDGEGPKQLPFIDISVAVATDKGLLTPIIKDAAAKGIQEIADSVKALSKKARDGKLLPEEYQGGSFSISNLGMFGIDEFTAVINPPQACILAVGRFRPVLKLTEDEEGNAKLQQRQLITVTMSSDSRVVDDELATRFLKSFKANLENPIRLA
# T2: dihydrolipoyllysine acetyltransferase (DLAT), endogenous (human, UniProt P10515 87-647, lipoyl-lysine at K132 and K259)
# T2 construct: Endogenous protein in mitochondrial lysates of MRC5 cells; also called E2 component of the PDHC
# T2 sequence (looked up): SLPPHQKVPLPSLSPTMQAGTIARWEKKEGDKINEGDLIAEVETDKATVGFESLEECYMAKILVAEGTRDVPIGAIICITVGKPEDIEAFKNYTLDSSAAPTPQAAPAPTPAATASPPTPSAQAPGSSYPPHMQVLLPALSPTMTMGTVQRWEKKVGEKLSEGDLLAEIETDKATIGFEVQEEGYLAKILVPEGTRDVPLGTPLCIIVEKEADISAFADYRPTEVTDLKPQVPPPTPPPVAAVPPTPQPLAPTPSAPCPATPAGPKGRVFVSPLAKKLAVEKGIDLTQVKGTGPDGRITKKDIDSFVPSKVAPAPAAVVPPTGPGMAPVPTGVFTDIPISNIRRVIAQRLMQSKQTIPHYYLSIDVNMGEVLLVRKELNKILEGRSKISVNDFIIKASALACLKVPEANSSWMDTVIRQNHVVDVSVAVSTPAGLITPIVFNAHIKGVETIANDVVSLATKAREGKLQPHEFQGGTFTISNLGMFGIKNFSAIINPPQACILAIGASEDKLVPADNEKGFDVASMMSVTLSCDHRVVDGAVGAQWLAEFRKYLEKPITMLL
# T3: SIRT3, endogenous (human, UniProt Q9NTG7 102-399, limits assumed)
# T3 sequence (looked up): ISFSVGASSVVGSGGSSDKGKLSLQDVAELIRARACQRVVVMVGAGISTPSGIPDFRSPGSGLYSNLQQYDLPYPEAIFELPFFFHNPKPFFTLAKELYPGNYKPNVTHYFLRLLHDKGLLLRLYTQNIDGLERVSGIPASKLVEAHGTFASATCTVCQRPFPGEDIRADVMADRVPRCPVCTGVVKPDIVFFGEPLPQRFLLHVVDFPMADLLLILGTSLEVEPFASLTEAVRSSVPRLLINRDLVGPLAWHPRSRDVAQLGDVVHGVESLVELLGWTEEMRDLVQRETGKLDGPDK
# B1: SIRT4-EGFP (enzyme)
# chain: IGLFVPASPPLDPEKVKELQRFITLSKRLLVMTGAGISTESGIPDYRSEKVGLYARTDRRPIQHGDFVRSAPIRQRYWARNFVGWPQFSSHQPNPAHWALSTWEKLGKLYWLVTQNVDALHTKAGSRRLTELHGCMDRVLCLDCGEQTPRGVLQERFQVLNPTWSAEAHGLAPDGDVFLSEEQVRSFQVPTCVQCGGHLKPDVVFFGDTVNPDKVDFVHKRVKEADSLLVVGSSLQVYSGYRFILTAWEKKLPIAILNIGPTRSDDLACLKLNSRCGELLPLIDPC
# notes: Stably expressed in MRC5 fibroblasts and immunoisolated from mitochondrial lysate with anti-GFP beads; also called SIRT4-OE; not shown: EGFP (enhanced green fluorescent protein, ORF of pEGFP-N1), fused C-terminal of SIRT4; linker
# B2: endogenous SIRT4 (enzyme)
# chain: IGLFVPASPPLDPEKVKELQRFITLSKRLLVMTGAGISTESGIPDYRSEKVGLYARTDRRPIQHGDFVRSAPIRQRYWARNFVGWPQFSSHQPNPAHWALSTWEKLGKLYWLVTQNVDALHTKAGSRRLTELHGCMDRVLCLDCGEQTPRGVLQERFQVLNPTWSAEAHGLAPDGDVFLSEEQVRSFQVPTCVQCGGHLKPDVVFFGDTVNPDKVDFVHKRVKEADSLLVVGSSLQVYSGYRFILTAWEKKLPIAILNIGPTRSDDLACLKLNSRCGELLPLIDPC
# notes: Endogenous SIRT4 of wild-type MRC5 fibroblasts
# What was measured:
# [1] = target: T1, PDH component X (PDHX), endogenous; test: anti-GFP immunoaffinity purification from MRC5 mitochondria, western blot; confocal co-localization
# Protocol: (§1) Western Immunoblotting. 10 μg of protein from each fraction was resuspended in L SDS Sample Buffer. Each sample was subjected to SDS-PAGE, transferred to nitrocellulose membranes (GE Healthcare Life Sciences, cat. #45-000-929), and blocked in blocked in 5% (w/v) skim milk powder in Tris-buffered saline with 0.05% (v/v) Tween-20 (TBST) for 1 hr at RT. Membranes were probed according to manufacturer's instructions, with the following primary antibodies: mouse anti-GFP (Roche, cat. #11814460001), rabbit anti-LAMP1 (Abcam, cat. #ab24170), rabbit anti-COXIV (Cell Signaling Technology, cat. #4844), rabbit anti-DLAT (Santa Cruz Biotechnology, cat. #sc-32925), or rabbit anti-PDHX (Santa Cruz Biotechnology, sc-98752), for 1 h in TBST, followed by 1 hr incubation in corresponding horseradish peroxidase (HRP)-conjugated secondary antibodies (Jackson ImmunoResearch Laboratories). All antibody incubations were carried out at RT with gentle agitation, and blots washed three times with TBST for 10 min after each incubation. Immuno-targets were detected using ECL (GE Healthcare Life Sciences, cat. #RPN2106).
# (§2) Immunoaffinity Purification. SIRT4-EGFP and control EGFP immunoaffinity purifications (IPs) from MRC5 cells were performed using M270 Epoxy Dynabeads (Invitrogen, cat. #14302D) coupled with in-house generated rabbit anti-GFP polyclonal antibodies, as described previously²⁹. […]
# [2] = target: T2, dihydrolipoyllysine acetyltransferase …; test: as above
# Protocol: as §1, §2
# SIRT3, endogenous = target: T3, SIRT3, endogenous; test: immunoaffinity purification of SIRT4-EGFP from MRC5 mitochondria with mass spectrometry (IP-MS), SAINT scoring
# Protocol: Immunoaffinity Purification. SIRT4-EGFP and control EGFP immunoaffinity purifications (IPs) from MRC5 cells were performed using M270 Epoxy Dynabeads (Invitrogen, cat. #14302D) coupled with in-house generated rabbit anti-GFP polyclonal antibodies, as described previously²⁹. Pooled mitochondria from fractions 3 and 4 from the OptiPrep™ gradient were resuspended in 1 mL optimized Lysis Buffer (20 mM HEPES-KOH, pH 7.4, 0.1 M KOAc, 2 mM MgCl₂, 0.1% Tween-20, 1 μM ZnCl₂, 1 μM CaCl2)), with 0.6% Triton X-100, 200 mM NaCl, and 1/100 (v/v) protease inhibitor cocktail (Sigma, cat. #P8340). Lysed mitochondria were vortexed three times for 20 sec each, and mixed by rotation for 10 min at 4° C. Insoluble material (pellet) was removed by centrifugation at 5000×g for 10 min. The supernatant was collected and SIRT4-EGFP or free EGFP (negative control) was immunoisolated by incubation with 7 mg of GFP-coupled magnetic beads for 60 min at 4° C. […]
# To investigate potential endogenous substrates of SIRT4, proteomics was used to define its endogenous mitochondrial protein interactions. […] Using direct fluorescence microscopy (co-localization with MitoTracker, FIG. 4) and density-based organelle fractionation (co-isolation with the mitochondrial COX IV, FIG. 1a), we confirmed its mitochondrial localization. […]
# [3] = target: T2, dihydrolipoyllysine acetyltransferase …; test: reciprocal immunoaffinity purification of DLAT from wild-type fibroblasts, western blot (FIG. 1F)
binder,measurement,setting,value
B1,binding result,[1],binds
same,binding result,[2],binds
same,binding result,"SIRT3, endogenous",no binding
B2,binding result,[3],binds

# — patent US20210318312A1 (TRUSTEES OF PRINCETON UNIVERSITY, published 2021)
